# Results from patent US20090011464A1 (published 2009).
# B1: murine Act-1 monoclonal antibody (antibody, mouse IgG1, V domains shown)
# VH: QVQLQQPGAELVKPGTSVKLSCKGYGYTFTSYWMHWVKQRPGQGLEWIGEIDPSESNTNYNQKFKGKATLTVDISSSTAYMQLSSLTSEDSAVYYCARGGYDGWDYAIDYWGQGTSVTVSS
# VL: DVVVTQTPLSLPVSFGDQVSISCRSSQSLAKSYGNTYLSWYLHKPGQSPQLLIYGISNRFSGVPDRFSGSGSGTDFTLKISTIKPEDLGMYYCLQGTHQPYTFGGGTKLEIK
# notes: Mouse IgG1/kappa from the Act-1 hybridoma (ATCC PTA-3663); also called mAb Act-1; mouse Act-1 antibody
# Target: T1, human α4β7 integrin (human, UniProt P13612 34-1032; P26010 20-798)
# T1 construct: whole, on cells; also called α4β7 integrin on HuT 78 cells; α4β7 on RPMI 8866 cells
# Assay: inhibition of adhesion of α4β7+ RPMI 8866 cells to plate-bound human MAdCAM-1-Ig chimera; antibody varied from 15.0 to 0.00075 µg/ml
# Procedure: Wells were then washed once with wash buffer (50 mM Tris HCl, 0.14 M NaCl, 1 mM MnC12, pH 7.2) using a microplate autowasher (Bio-Tek Instruments, Winooski, Vt.) and blocked for 1.5 hrs at 37° C. with 100 μL of 10% FBS diluted in PBS.
# BCECF (2′,7′-bis-(2-carboxyethyl)-5-(and 6)-carboxy fluorescein, acetoxymethyl ester; Molecular Probes, Inc., Eugene, Oreg.) was reconstituted to 50 μg/ml in DMSO and added to the cell suspension to a final dilution of 1:500. After incubating for 30 minutes at 37° C., cells were then washed in assay buffer (HBSS with 2% Fetal Bovine Serum, 25 mM HEPES, penicillin/streptomycin, pH 7.2), and 50,000 cells were added to each well of a V-bottom 96-well plate. […] The plate coated with MAdCAM-1 chimera was washed to remove blocking buffer, and these fluorescently labeled RPMI 8866 cells were then transferred to each well. The plate was placed on a platform shaker (New Brunswick Scientific Co., Inc., Edison, N.J.) at 40 RPM for 30 minutes at room temperature wrapped in aluminum foil. Unbound cells were removed by a single wash step and fluorescence subsequently measured (excite at 485 nm, read at 535 nm) with a Fluorescence Concentrator Analyzer (IDEXX Laboratories, Inc., Westbrook, Me.) before and after washing.
binder,measurement,value
B1,IC50,1.8 ng/mL
